Experimental data published in US20240200091A1, “USE OF PROTOPORPHYRINOGEN OXIDASE” (BEIJING DABEINONG BIOTECHNOLOGY CO., LTD., priority 2021, published 2024).

Experiments:
Format in all cases: in vivo
transgenic maize plants [1] = assay: flumioxazin tolerance of transgenic maize plants (spray, grade of pesticide damage); conditions: for The grade of pesticide damage/plant: number of plants of grade 0 / The grade of pesticide damage/plant: number of plants of grade 1 / The grade of pesticide damage/plant: number of plants of grade 2 / The grade of pesticide damage/plant: number of plants of grade 3: 7 DAT, 16 maize plants per genotype
transgenic maize plants [2] = assay: saflufenacil tolerance of transgenic maize plants (spray, grade of pesticide damage); conditions: for tolerance to saflufenacil: maize; for The grade of pesticide damage/plant: number of plants of grade 0 / The grade of pesticide damage/plant: number of plants of grade 1 / The grade of pesticide damage/plant: number of plants of grade 2 / The grade of pesticide damage/plant: number of plants of grade 3: 7 DAT, 16 maize plants per genotype
transgenic maize plants [3] = assay: oxyfluorfen tolerance of transgenic maize plants (spray, grade of pesticide damage); conditions: for tolerance to oxyfluorfen: maize; for The grade of pesticide damage/plant: number of plants of grade 0 / The grade of pesticide damage/plant: number of plants of grade 1 / The grade of pesticide damage/plant: number of plants of grade 2 / The grade of pesticide damage/plant: number of plants of grade 3: 7 DAT, 16 maize plants per genotype
[4] = flumioxazin 120 g ai/ha (2x field concentration)
[5] = flumioxazin 240 g ai/ha (4x field concentration)
[6] = saflufenacil 50 g ai/ha (2x field concentration)
[7] = saflufenacil 100 g ai/ha (4x field concentration)
[8] = oxyfluorfen 360 g ai/ha (2x field concentration)
[9] = oxyfluorfen 720 g ai/ha (4x field concentration)

B1: PPO1B: nucleotide sequence encoding protoporphyrinogen oxidase PPO1, maize common codon usage bias (nucleic acid)
DNA: ATGAAAGCGTTGGTTCTTTACAGTACAAGAGATGGTCAGACCCACGCCATTGCGAGCTATATCGCAAACTGCATGAAGGAGAAGTATGAATGTGACGTCATTGATCTCTTGCACGCGCAGCATGTCACCCTTAGCCGCTACGACAAGGTCCTTGTTGGGGCATCGATACGCTATGGCCATTTCAACGCCGTGCTGGACAAATTTGTTAAGCAGAATATACAACAGCTGAACTCCATGCCTTCTGCATTCTTCGCGGTAAATCTGACCGCTCGTAAGCCAGAAAAAAGGACACCACAAACAAATTCATACGTCAGAAAGTTCCTCCTAGGAACGCCGTGGAAGCCCGCCATGTGCGGTGTTTTTGCTGGCGCCTTGCGATACCCTCGGTATCGGTGGGTGGACAAGGTGATGATCCAATTAATCATGAGGATGACGGGGGGCGAGACTGATACTTCTAAAGAAGTGGAGTACACTGATTGGGAGCAGGTGAAAAAATTTGCTGAGGACTTCGGAAAGCTCTCCTACAAGAAGACGCTGTGA
modifications: The nucleotide sequence of PPO1B
- The grade of pesticide damage/plant: number of plants of grade 0 (transgenic maize plants [1]; [4]): 16
- The grade of pesticide damage/plant: number of plants of grade 1 (transgenic maize plants [1]; [4]): 0
- The grade of pesticide damage/plant: number of plants of grade 2 (transgenic maize plants [1]; [4]): 0
- The grade of pesticide damage/plant: number of plants of grade 3 (transgenic maize plants [1]; [4]): 0
- The grade of pesticide damage/plant: number of plants of grade 0 (transgenic maize plants [1]; [5]): 16
- The grade of pesticide damage/plant: number of plants of grade 1 (transgenic maize plants [1]; [5]): 0
- The grade of pesticide damage/plant: number of plants of grade 2 (transgenic maize plants [1]; [5]): 0
- The grade of pesticide damage/plant: number of plants of grade 3 (transgenic maize plants [1]; [5]): 0
- tolerance to flumioxazin (transgenic maize plants [1]; maize, flumioxazin at different concentrations (120 and 240 g ai/ha)): high-resistant tolerance
- tolerance to saflufenacil (transgenic maize plants [2]; saflufenacil at four-fold field concentration (100 g ai/ha)): high-resistant tolerance
- tolerance to saflufenacil (transgenic maize plants [2]; saflufenacil at two-fold field concentration (50 g ai/ha)): high-resistant tolerance
- The grade of pesticide damage/plant: number of plants of grade 0 (transgenic maize plants [2]; [6]): 16
- The grade of pesticide damage/plant: number of plants of grade 1 (transgenic maize plants [2]; [6]): 0
- The grade of pesticide damage/plant: number of plants of grade 2 (transgenic maize plants [2]; [6]): 0
- The grade of pesticide damage/plant: number of plants of grade 3 (transgenic maize plants [2]; [6]): 0
- The grade of pesticide damage/plant: number of plants of grade 0 (transgenic maize plants [2]; [7]): 16
- The grade of pesticide damage/plant: number of plants of grade 1 (transgenic maize plants [2]; [7]): 0
- The grade of pesticide damage/plant: number of plants of grade 2 (transgenic maize plants [2]; [7]): 0
- The grade of pesticide damage/plant: number of plants of grade 3 (transgenic maize plants [2]; [7]): 0
- tolerance to oxyfluorfen (transgenic maize plants [3]; oxyfluorfen at four-fold field concentration (720 g ai/ha)): high-resistant tolerance
- tolerance to oxyfluorfen (transgenic maize plants [3]; oxyfluorfen at two-fold field concentration (360 g ai/ha)): high-resistant tolerance
- The grade of pesticide damage/plant: number of plants of grade 0 (transgenic maize plants [3]; [8]): 16
- The grade of pesticide damage/plant: number of plants of grade 1 (transgenic maize plants [3]; [8]): 0
- The grade of pesticide damage/plant: number of plants of grade 2 (transgenic maize plants [3]; [8]): 0
- The grade of pesticide damage/plant: number of plants of grade 3 (transgenic maize plants [3]; [8]): 0
- The grade of pesticide damage/plant: number of plants of grade 0 (transgenic maize plants [3]; [9]): 16
- The grade of pesticide damage/plant: number of plants of grade 1 (transgenic maize plants [3]; [9]): 0
- The grade of pesticide damage/plant: number of plants of grade 2 (transgenic maize plants [3]; [9]): 0
- The grade of pesticide damage/plant: number of plants of grade 3 (transgenic maize plants [3]; [9]): 0
